Test results published in patent US20170015742A1 (published 2017).
Values belong to the binder of their own block, whether it stands above or below them.

Columns and labels:
[1] = target: T1, recombinant human VEGF165 (human, UniProt P15692 207-395); assay: cell-based or functional assay
[2] = target: T2, recombinant human PDGF-BB (human, UniProt P01127 82-190); assay: cell-based or functional assay
[3] = target: T2, recombinant human PDGF-BB; assay: competition ELISA: blocks hPDGF-BB-biotin binding to coated hPDGF-Rβ-Fc
Method: Plates were then washed four times with wash buffer (TBS, 0.05% Tween-20) and blocked with Superblock blocking buffer (Thermo Scientific, cat#37535). During the blocking step, supernatants, antibodies, benchmark compounds or DVD-Ig were diluted in assay diluent (10% Superblock containing 0.05% surfactamps) and an eight point titration of each sample molecule was performed. […] Following incubation, plates were washed four times with wash buffer. Detection reagent Streptavidin-polyHRP-40 (Fitzgerald, cat#65r-s104phrp) was diluted in assay diluent and added to plates (50 μL) for 45 minutes at 25° C. with shaking. Plates were washed four times with wash buffer and developed with the addition of Enhanced K-blue TMB substrate (Neogen, cat#308177). The reaction was stopped with 2N sulfuric acid (VWR, cat# BDH3500-1) and the absorbance was read at 450 nm-570 nm. […] Data was analyzed using Softmax Pro 4.8 software and IC₅₀ values calculated using a sigmoidal dose response (variable slope) fit in GraphPad Prism 5.

[4] = target: T1, recombinant human VEGF165; assay: competition ELISA: blocks biotinylated hVEGF165 binding to coated hVEGF-R2-Fc
Method: To identify molecules that could block the binding of hVEGF₁₆₅ to the hVEGF-R2 (KDR/Flk-1) receptor, a competition ELISA was performed. […] Plates were then washed four times with wash buffer (TBS, 0.05% Tween-20) and blocked with Superblock blocking buffer (Thermo Scientific, cat#37535). […] The pre-incubated sample/hVEGF₁₆₅ complex was added to the coated plate at 50 μL in duplicate and incubated for 30 minutes at 25° C. with shaking. Following incubation, plates were washed four times with wash buffer. Streptavidin-polyHRP-40 (Fitzgerald cal#65r-s104phrp) was diluted in assay diluent (10% Superblock containing 0.05% surfactamps) and added to plates (50 μL) for 45 minutes at 25° C. with shaking. Plates were washed four times with wash buffer and developed with the addition of Enhanced K-blue TMB substrate (Neogen cat#308177). The reaction was stopped with 2N sulfuric acid (VWR, cat# BDH3500-1) and the absorbance was read at 450 nm-570 nm. A decrease in observed optical density indicates the test molecule is blocking the hVEGF₁₆₅ binding to the hVEGF-R2-Fc. Data was analyzed using Softmax Pro 4.8 software and IC₅₀ values calculated using a sigmoidal dose response (variable slope) fit in GraphPad Prism 5.

T1 sequence (P15692 other isoform, or with tags, fused parts or gaps limits assumed): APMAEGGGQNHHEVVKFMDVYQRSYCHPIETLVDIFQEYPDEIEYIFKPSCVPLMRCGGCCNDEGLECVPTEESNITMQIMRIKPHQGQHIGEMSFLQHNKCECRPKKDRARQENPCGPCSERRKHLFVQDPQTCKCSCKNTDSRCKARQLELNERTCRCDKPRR
T2 sequence (P01127 82-190 limits assumed): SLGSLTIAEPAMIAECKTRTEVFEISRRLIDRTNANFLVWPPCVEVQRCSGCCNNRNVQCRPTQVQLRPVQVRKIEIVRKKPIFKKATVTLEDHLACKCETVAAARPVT

Potency IC50 (nM) HMVEC-d hVEGF165 [1]: 0.341 nM
Potency IC50 (nM) NIH-3T3 hPDGF-BB [2]: 0.63 nM
IC50 [3]: > 5 nM
IC50 [4]: 0.137 nM
B1: hVEGF 4G8.3-GS-hPDGF 9E8.4 [hu IgG1/k] mut(234, 235) H435A (bispecific antibody)
heavy: EVQLVQSGSELKKPGASVKVSCKASGYTFTNYGMYWVRQAPGQGLEWMGWINTETGKPTYADDFKGRFVFSLDTSVSTAYLQISSLKAEDTAVYYCARTNYYYRSYIFYFDYWGQGTMVTVSSGGGGSGGGGSEVTLRESGPALVKPTQTLTLTCTFSGFSLSTYGMGVGWIRQPPGKALEWLANIWWDDDKYYNPSLKNRLTISKDTSKNQVVLTMTNMDPVDTATYYCARIESIGTTYSFDYWGQGTMVTVSSASTKGPSVFPLAPSSKSTSGGTAALGCLVKDYFPEPVTVSWNSGALTSGVHTFPAVLQSSGLYSLSSVVTVPSSSLGTQTYICNVNHKPSNTKVDKKVEPKSCDKTHTCPPCPAPEAAGGPSVFLFPPKPKDTLMISRTPEVTCVVVDVSHEDPEVKFNWYVDGVEVHNAKTKPREEQYNSTYRVVSVLTVLHQDWLNGKEYKCKVSNKALPAPIEKTISKAKGQPREPQVYTLPPSREEMTKNQVSLTCLVKGFYPSDIAVEWESNGQPENNYKTTPPVLDSDGSFFLYSKLTVDKSRWQQGNVFSCSVMHEALHNAYTQKSLSLSPGK
light: DTVLTQSPATLSLSPGERATLSCRASESVSTHMHWYQQKPGQAPRLLIYGASNLESGVPARFSGSGSGTDFTLTISSLEPEDFAVYFCQQSWNDPFTFGQGTKLEIKRGGSGGGGSGEFVLTQSPGTLSLSPGERATLSCERSSGDIGDSYVSWYQQKPGQAPRLVIYADDQRPSGIPDRFSGSGSGTDFTLTISRLEPEDFAVYYCQSYDINIDIVFGGGTKVEIKGTVAAPSVFIFPPSDEQLKSGTASVVCLLNNFYPREAKVQWKVDNALQSGNSQESVTEQDSKDSTYSLSSTLTLSKADYEKHKVYACEVTHQGLSSPVTKSFNRGEC
notes: DVD-Ig, outer anti-VEGF hBDB-4G8.3, inner anti-PDGF hBDI-9E8.4; also called 4G8.3-GS-9E8.4

Potency IC50 (nM) HMVEC-d hVEGF165 [1]: 0.36 nM
Potency IC50 (nM) NIH-3T3 hPDGF-BB [2]: 0.427 nM
IC50 [3]: > 5 nM
IC50 [4]: 0.133 nM
B2: hVEGF 4G8.3-SL-hPDGF 9E8.4 [hu IgG1/k] mut(234, 235) H435A (bispecific antibody)
heavy: EVQLVQSGSELKKPGASVKVSCKASGYTFTNYGMYWVRQAPGQGLEWMGWINTETGKPTYADDFKGRFVFSLDTSVSTAYLQISSLKAEDTAVYYCARTNYYYRSYIFYFDYWGQGTMVTVSSASTKGPEVTLRESGPALVKPTQTLTLTCTFSGFSLSTYGMGVGWIRQPPGKALEWLANIWWDDDKYYNPSLKNRLTISKDTSKNQVVLTMTNMDPVDTATYYCARIESIGTTYSFDYWGQGTMVTVSSASTKGPSVFPLAPSSKSTSGGTAALGCLVKDYFPEPVTVSWNSGALTSGVHTFPAVLQSSGLYSLSSVVTVPSSSLGTQTYICNVNHKPSNTKVDKKVEPKSCDKTHTCPPCPAPEAAGGPSVFLFPPKPKDTLMISRTPEVTCVVVDVSHEDPEVKFNWYVDGVEVHNAKTKPREEQYNSTYRVVSVLTVLHQDWLNGKEYKCKVSNKALPAPIEKTISKAKGQPREPQVYTLPPSREEMTKNQVSLTCLVKGFYPSDIAVEWESNGQPENNYKTTPPVLDSDGSFFLYSKLTVDKSRWQQGNVFSCSVMHEALHNAYTQKSLSLSPGK
light: DTVLTQSPATLSLSPGERATLSCRASESVSTHMHWYQQKPGQAPRLLIYGASNLESGVPARFSGSGSGTDFTLTISSLEPEDFAVYFCQQSWNDPFTFGQGTKLEIKRTVAAPSVFIFPPEFVLTQSPGTLSLSPGERATLSCERSSGDIGDSYVSWYQQKPGQAPRLVIYADDQRPSGIPDRFSGSGSGTDFTLTISRLEPEDFAVYYCQSYDINIDIVFGGGTKVEIKGTVAAPSVFIFPPSDEQLKSGTASVVCLLNNFYPREAKVQWKVDNALQSGNSQESVTEQDSKDSTYSLSSTLTLSKADYEKHKVYACEVTHQGLSSPVTKSFNRGEC
notes: DVD-Ig, outer hBDB-4G8.3, inner hBDI-9E8.4, HG-short/LK-long; also called 4G8.3-SL-9E8.4
